# Data taken from patent US20250108100A1, “C-TERMINAL FRAGMENT OF APOLIPOPROTEIN E AND APPLICATION THEREOF IN INHIBITING y-SECRETASE ACTIVITY” (SYNPHATEC (SHANGHAI) BIOPHARMACEUTICAL TECHNOLOGY CO., LTD., priority 2022, published 2025).
# “Also recorded” adds a separate entry of the source.
# B1: ApoE CT: C-terminal fragment of ApoE, positions 216-299 of SEQ ID NO: 12; SEQ ID NO: 33 (protein)
# chain: ARMEEMGSRTRDRLDEVKEQVAEVRAKLEEQAQQIRLQAEAFQARLKSWFEPLVEDMQRQWAGLVEKVQAAVGTSAAPVPSDNH
# Columns and labels:
# [1] = system: human APP and β-secretase co-expressed in HEK 293T cells; test: HEK 293T cells co-expressing APP and β-secretase (BACE1): Aβ ELISA and β-CTF Western blot; assay type: cell-based
# Method: The experiment was performed according to the standard procedure in the ELISA analysis kit of Invitrogen Company. • a) The target protein was expressed in HEK 293T cell line. Cells were subcultured one day before transfection, and transfection was performed when the degree of cell adhesion reached 70%-80%. The transfection reagent was lipofectamine2000 (ThermoFisher). • b) 4-6 hours post transfection, medium were replaced with fresh cell culture medium. • c) 36-48 hours post transfection, the cell culture medium was collected, and then the ELISA process was performed or the cell culture medium was frozen in a −80° C. refrigerator. • d) 50 μl of standard samples and experimental samples were added to each well of the 96-well plate. • e) 50 μl of human-derived Aβ40 or Aβ42 or mouse-derived Aβ40 detection antibody was added to each well of the 96-well plate. • f) The above samples were shaken gently and placed at room temperature for 3 hours. • g) The liquid in the well were removed, and the plate was washed 4 times with 1× wash buffer. • h) 100 μl of the buffer containing 1× anti-Rabbit IgG HRP was added. • i) The plate was shaken gently and placed at room temperature for […]. • j) The liquid in the well were removed, and the well was washed 4 times with 1× wash buffer. • k) 100 μl of Stabilized Chromogen was added to each well, and the plate was placed in the dark for 30 minutes at room temperature. • l) 100 μl of Stop Solution was added to each well. • m) The absorbance at 450 nm was measured with a microplate reader. 2.4 qRT-PCR
# 48 hours after transfection of HEK 293T cells and N2A cells, or 4.5 days after lentivirus infection of neurons, media and lysates were collected. Aβ40 and Aβ42 in the culture medium and cell lysates were detected by an Aβ ELISA kit as indicated in the protocol. (Invitrogen Technology; KHB3481 for human Aβ40, KHB3441 for human Aβ42 and KMB3481 for mouse Aβ40).
# (§1) Data were analyzed by GraphPad Prism software (v6) using unpaired, paired, or one-sample t-tests. Aβ40 and Aβ42 levels were normalized to the corresponding GFP controls. α-CTF levels were normalized to FL-APP and corresponding GFP controls. All data are represented as mean±SEM. Statistical significance was defined as p<0.05. One, two, three and four stars (*) in the graph indicate p-values <0.05, <0.01, <0.001 and <0.0001, respectively.
# APP mutants = test: α-CTF produced by APP variants with AD-related mutations co-expressed in HEK 293T cells; assay type: cell-based, human
# Method: (§2) Plasmids were transfected in HEK 293T or N2A cells for 36-48 hours and then lysed in cell lysis buffer [10% 1M tris-HCl (pH=6.8), 4% SDS, 20% glycerol, 0.01% bromophenol blue]. Lysates were shaken at room temperature for 10 min, then boiled for 10 min, and centrifuged at 12,000×g for 10 min. Proteins were run on 8% or 12% Tris-glycine SDS-PAGE and transferred to PVDF membranes (Life Technologies). Samples were incubated overnight at 4° C. with primary antibody diluted in 5% BSA buffer (in 1×TBST). After washing 3 times with 1×TBST, they were incubated with secondary antibody diluted in 5% BSA buffer (in 1×TBST) for 2 hours at room temperature. Finally, after washing 3 times with 1×TBST, the signal was detected by ECL Western blotting substrate (Solarbio, PE0010).
# mouse APP (mAPP) = test: α-CTF produced by mouse APP (mAPP) expressed in HEK 293T cells; assay type: cell-based; conditions: HEK 293T cells transiently expressing mAPP
# Method: as §2
# [2] = system: human APP co-expressed in HEK 293T cells; test: α-CTF produced by APP co-expressed in HEK 293T cells (Western blot); assay type: cell-based; conditions: for α-CTF produced by co-expressed APP: Western blot
# Method: • a) A plasmid expressing the target protein in mammalian cells was constructed, and the protein expression promoter is CAG. • b) The target protein was expressed in HEK 293T cell line. Cells were subcultured one day before transfection, and transfection was performed when the degree of cell adhesion reached 70%-80%. The transfection reagent was lipofectamine2000 (ThermoFisher). • c) 4-6 hours post transfection, the medium were replaced with fresh cell culture medium. • d) 36-48 hours post transfection, the cells were lysed (10% 1M tris-HCl (pH=6.8), 4% SDS, 20% glycerol, 0.01% bromophenol blue), and the protein samples were collected and used for Western blot or stored in a −80° C. freezer. • e) Polyacrylamide gel electrophoresis. Before protein loading, the protein was boiled at 98° C. for 10 min, and then centrifuged at 12000 rpm for 10 min. Electrophoresis: 80V for the upper stacking gel; 120V for the lower separating gel. • f) Protein transfer. The filter paper was soaked in the electrophoresis solution before use, and the PVDF membrane was put in methanol for 10s to activate, and the gel after electrophoresis was taken out from the electrophoresis tank, put in the order of filter paper—PVD membrane—gel-filter paper from bottom to top, and they were put into the transfer instrument, with transferring in constant current at 0.1 A for 70 min. • g) Blocking and antibody incubation: the transferred PVDF membrane was placed in 5% BSA/TBST blocking solution, and blocked on a shaker at room temperature for 1 hour. The primary antibody was used to incubate at 4° C. overnight on a shaker (12-16 h); 1×TBST was used to wash three times, once every 10 minutes; the secondary antibody was used to incubate, shaked at room temperature for 1-2 h; 1×TBST was used to wash three times, once every 10 minutes. • h) Imaging by development: development was performed with ECL chemiluminescence hypersensitive chromogenic reagent.
# as §2, §1
molecule,measurement,setting,value
B1,Aβ40 in the presence of GI254023X,"[1]; APP and BACE1, 1 μM GI254023X",decrease Aβ40
same,β-CTF levels,"[1]; APP and BACE1, Western blot",did not alter β-CTF levels
same,production of Aβ40,"[1]; APP and β-secretase co-expressed, ELISA, vs GFP control",decreased Aβ40
same,"Aβ40 in cell lysates, decreased by","[1]; APP, BACE1",about 42%
same,"Aβ40 secreted into the cell culture medium, reduced by","[1]; APP, BACE1",about 75%
same,"Aβ42, reduced by","[1]; APP, BACE1",about 74%
same,ratio of Aβ42/Aβ40,"[1]; APP, BACE1",remains unchanged
same,Aβ40,[1]; ELISA,25 % of GFP control
same,Aβ42,[1]; ELISA,about 26 % of GFP control
same,"effect on α-CTF levels, Icelandic mutation",APP mutants; APP A673T,no difference
same,ability to increase α-CTF levels compared to WT APP,"APP mutants; APP fAD mutations near γ cleavage site (T714I, V717F, L723P)",significantly reduced
same,α-CTF produced by all tested APP mutants,APP mutants; HEK 293T cells,increased α-CTF
same,α-CTF produced by APPM596V,"APP mutants; HEK 293T cells, APP mutation that cannot conduct β-cleavage",able to increase α-CTF
same,"effect on α-CTF levels, WT APP vs APP mutants","APP mutants; fAD mutations near β- or α-cleavage site (KM670/671NL, E693K, E693A)",no statistically significant difference
same,α-CTF levels from mouse APP,mouse APP (mAPP),increases α-CTF levels
same,level of α-CTF compared with ApoE2,[2],significantly increases the level of α-CTF
same,increase of α-CTF in the presence of GI254023X,[2]; 1 μM ADAM10 inhibitor GI254023X,approximately 4 fold
same,α-CTF in the presence of PF03084014,[2]; 1 μM γ-secretase inhibitor PF03084014,failed to further increase α-CTF
same,α-CTF when β-secretase inhibited by AZD3839,[2]; 5 μM AZD3839,still increases α-CTF
same,α-CTF produced by APP co-expressed with PS1,"[2]; APP and PS1 co-expressed, PF03084014 at 1 μM",significantly increases α-CTF; also recorded: can increase the production of α-CTF
same,γ-cleavage of APP (α-CTF) when co-expressed with γ-secretase,"[2]; APP, γ-secretase and ApoE CT co-expressed",still inhibited γ-cleavage of APP
same,α-CTF produced by co-expressed APP,[2]; vs GFP control,significantly increased α-CTF; also recorded: increased the α-CTF
same,α-CTF produced by co-expressed APP,"[2]; vs GFP control, listed as human ApoE CT",also increase α-CTF
same,increase in α-CTF levels,[2]; vs GFP control,more than 6 fold
same,α-CTF level,[2]; vs GFP control,more than 5 times the original level
